# Reference: patent US20180149638A1
# Target: pBIND-ASK1N (DNA binding domain fused to ASK1 N-terminal 1-678 aa, CheckMate mammalian two-hybrid system) (Homo sapiens (Human)) (UniProt Q99683)
# Assay: cell-based or functional assay
# Sequence of UniProt Q99683 (Q99683 other isoform, or with tags, fused parts or gaps limits assumed, form in doubt): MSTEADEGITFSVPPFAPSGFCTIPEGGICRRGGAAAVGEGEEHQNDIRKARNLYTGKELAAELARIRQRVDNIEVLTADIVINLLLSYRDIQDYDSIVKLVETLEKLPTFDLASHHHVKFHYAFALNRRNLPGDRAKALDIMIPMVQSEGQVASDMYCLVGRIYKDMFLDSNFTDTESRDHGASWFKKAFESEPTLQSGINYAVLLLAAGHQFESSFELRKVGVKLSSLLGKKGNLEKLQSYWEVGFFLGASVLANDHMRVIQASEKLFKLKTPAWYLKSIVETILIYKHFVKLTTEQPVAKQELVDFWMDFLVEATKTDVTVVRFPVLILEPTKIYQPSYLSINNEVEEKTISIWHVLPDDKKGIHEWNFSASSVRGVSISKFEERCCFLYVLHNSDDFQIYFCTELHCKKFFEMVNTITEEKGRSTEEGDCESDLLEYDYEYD
substance,measurement,value
"pACT-ASK1N (transcriptional activation domain fused to ASK1 N-terminal 1-678 aa, CheckMate mammalian two-hybrid system) (from UniProt Q99683 1-678)","ratio of RLU value of firefly luciferase to RLU value of Renilla luciferase, group A (no peptide)",1.9
